Test results published in patent US20050106100A1, “Compounds containing matrix metalloproteinase substrates and methods of their use” (priority 2003, published 2005).

B1: mouse MMP9 (Mus musculus) (protein)
chain: FQTFKGLKWDHHNITYWIQNYSEDLPRDMIDDAFARAFAVWGEVAPLTFTRVYGPEADIVIQFGVAEHGDGYPFDGKDGLLAHAFPPGAGVQGDAHFDDDELWSLGKGVVIPTYYGNSNGAPCHFPFTFEGRSYSACTTDGRNDGTPWCSTTADYDKDGKFGFCPSERLYTEHGNGEGKPCVFPFIFEGRSYSACTTKGRSDGYRWCATTANYDQDKLYGFCPTRVDATVVGGNSAGELCVFPFVFLGKQYSSCTSDGRRDGRLWCATTSNFDTDKKWGFCPDQGYSLFLVAAHEFGHALGLDHSSVPEALMYPLYSYLEGFPLNKDDIDGIQYLYGRGSKPDPRPPATTTTEPQPTAPPTMCPTIPPTAYPTVGPTVGPTGAPSPGPTSSPSPGPTGAPSPGPTAPPTAGSSEASTESLSPADNPCNVDVFDAIAEIQGALHFFKDGWYWKFLNHRGSPLQGPFLTARTWPALPATLDSAFEDPQTKRVFFFSGRQMWVYTGKTVLGPRSLDKLGLGPEVTHVSGLLPRRLGKALLFSKGRVWRFDLKSQKVDPQSVIRVDKEFSGVPWNSHDIFQYQDKAYFCHGKFFWRVSFQNEVNKVDHEVNQVDDVGYVTYDLLQCP
notes: The turnover of different substrates by active MMP-2 and active MMP-9 was determined using this assay
B2: MMP-2 (Homo sapiens) (protein)
chain: YNFFPRKPKWDKNQITYRIIGYTPDLDPETVDDAFARAFQVWSDVTPLRFSRIHDGEADIMINFGRWEHGDGYPFDGKDGLLAHAFAPGTGVGGDSHFDDDELWTLGEGQVVRVKYGNADGEYCKFPFLFNGKEYNSCTDTGRSDGFLWCSTTYNFEKDGKYGFCPHEALFTMGGNAEGQPCKFPFRFQGTSYDSCTTEGRTDGYRWCGTTEDYDRDKKYGFCPETAMSTVGGNSEGAPCVFPFTFLGNKYESCTSAGRSDGKMWCATTANYDDDRKWGFCPDQGYSLFLVAAHEFGHAMGLEHSQDPGALMAPIYTYTKNFRLSQDDIKGIQELYGASPDIDLGTGPTPTLGPVTPEICKQDIVFDGIAQIRGEIFFFKDRFIWRTVTPRDKPMGPLLVATFWPELPEKIDAVYEAPQEEKAVFFAGNEYWIYSASTLERGYPKPLTSLGLPPDVQRVDAAFNWSKNKKTYIFAGDKFWRYNEVKKKMDPGFPKLIADAWNAIPDNLDAVVDLQGGGHSYFFKGAYYLKLENQSLKSVKFGSIKSDWLGC

What was measured:
Format in all cases: biochemical
[1] = substrate: CC(=O)N1CCC[C@H]1C(=O)N[C@@H](CC(C)C)C(=O)NCC(=O)N[C@@H](CCc1ccccc1)C(=O)N[C@@H](Cc1ccc(O)cc1)C(=O)N[C@@H](CC(C)C)C(=O)NNC(=O)c1ccc(N/N=C/c2ccccc2S(=O)(=O)ON)nc1; experiment: Substrate hydrolysis assay with mouse MMP9; settings: other: mouse MMP9; pH 7.5
Procedure: (§1) The kinetic parameters of substrate hydrolysis were determined using a radio HPLC assay. The turnover of different substrates by active MMP-2 and active MMP-9 was determined using this assay. A stock solution of different test substrates (10 mM) was prepared in 100% DMSO. Stock solutions of the test substrates were diluted 1000 fold (10 nM) in buffer (50 mM Hepes/pH 7.5, 10 mM CaCl2, 0.1% Brij) to give working stock solution. Working stock solution of the test substrate (15 μl) was added to buffer (120 μL) in a test tube and warmed at 37° C. for 2 minutes. To this solution 15 μL of working stock of active MMP-2 (final concentration 10 nM) or active MMP-9 was added (final concentration 2 nM). Finally, 4 μCi of radiolabeled test substrate was added and the solution was mixed and immediately 67.5 µL of the mix was transferred to HPLC vials containing 7.5 μl of 0.5M EDTA for t=0 minute measurement. The rest of the mix in the test tube was incubated at 37° C. for 60 minutes. At the 60 minute time point 67.5 μl of the mix was transferred to the HPLC vial containing 7.5 μL of 0.5 M EDTA for t=60 minute measurement. […] Mobile phase A (MPA) was 25 mM ammonium acetate and mobile phase B (MPB) was 100% acetonitrile. […] The radiolabel was detected by a IN/US beta ram detector. […]

[2] = substrate: CC(=O)N1CCC[C@H]1C(=O)N[C@@H](CCCN)C(=O)NCC(=O)N[C@@H](CCc1ccccc1)C(=O)N[C@@H](CC(C)C)C(=O)NNC(=O)c1ccc(N/N=C/c2ccccc2S(=O)(=O)O)nc1; experiment: Substrate hydrolysis assay with mouse MMP9; settings: other: mouse MMP9; pH 7.5
Procedure: as §1

[3] = substrate: CC(=O)N1CCC[C@H]1C(=O)N[C@@H](CC(C)C)C(=O)NCC(=O)N[C@@H](CCc1ccccc1)C(=O)N[C@@H](Cc1ccc(O)cc1)C(=O)N[C@@H](CC(C)C)C(=O)NNC(=O)c1ccc(N/N=C/c2ccccc2S(=O)(=O)ON)nc1; experiment: Kinetic measurements of substrate hydrolysis by active MMP-2 (radio HPLC assay); settings: other: active MMP-2 final concentration 10 nM, 37° C., 60 minutes, radiolabeled test substrate, pH 7.5
Procedure: (§2) Purified MMP-2 (10 μg) or MMP-9 (10 μg) were reconstituted in 100 μL of TCN buffer. […] Pro-MMP-2 was activated by incubation with 2 nM APMA for 2 hours at 37° C. At the end of incubation 100 μl of 100% glycerol was added to active MMP-2 and active MMP-9 (final concentration 50% glycerol). Active MMP-2 and active MMP-9 were aliquoted and stored at −20° C.
(§3) The level of active protease was always quantified by active site titration studies prior to kinetic studies. The active site of MMP-9 and MMP-2 was titrated using the GM6001 dissolved in 100% DMSO at a stock concentration of 2.5 mM. Dilutions (1:2) of GM6001 were prepared in TCN buffer to give a final concentration of 5 nM to 0.04 nM GM6001 in the active site titration assay. Activated MMP-2 or activated MMP-9 (2 nM) was preincubated with increasing concentrations of GM60001 at 37° C. for 15 minutes in 96 well black microtiter plates. […] Plates were read on fluorescence spectrophotometer at excitation wavelength of 320 nm and emission wavelength of 395 nm. The concentration of the active enzyme was determined using the Morrison equation and Kaleidagraph software (Reading, Pa.).
(§4) The kinetic parameters of substrate hydrolysis were determined using a radio HPLC assay. The turnover of different substrates by active MMP-2 and active MMP-9 was determined using this assay. […] The radiolabel was detected by a IN/US beta ram detector. […]

[4] = substrate: CC(=O)N1CCC[C@H]1C(=O)N[C@@H](CCCN)C(=O)NCC(=O)N[C@@H](CCc1ccccc1)C(=O)N[C@@H](CC(C)C)C(=O)NNC(=O)c1ccc(N/N=C/c2ccccc2S(=O)(=O)O)nc1; experiment: as above; settings: other: active MMP-2 final concentration 10 nM, 37° C., 60 minutes, radiolabeled test substrate, pH 7.5
Procedure: as §2, §3, §4

| Protein | kcat/Km [1] [M⁻¹ s⁻¹] | kcat/Km [2] [M⁻¹ s⁻¹] | kcat/Km [3] [M⁻¹ s⁻¹] | kcat/Km [4] [M⁻¹ s⁻¹] |
| --- | --- | --- | --- | --- |
| B1 | > 100000 | 897 |  |  |
| B2 |  |  | 63200 | 63700 |
